Like-named read-outs stand apart in the source and are kept apart here.
Legend:
[1] = molecular target: T1, rhesus monkey (Macaca mulatta) CD30 (rhesus monkey, UniProt P28908 19-595 (human entry)); experiment: flow cytometry on Expi293F cells transfected with rhesus monkey CD30
T1 construct: Full-length construct expressed in Expi293F cells; also called mmCD30
T1 chain: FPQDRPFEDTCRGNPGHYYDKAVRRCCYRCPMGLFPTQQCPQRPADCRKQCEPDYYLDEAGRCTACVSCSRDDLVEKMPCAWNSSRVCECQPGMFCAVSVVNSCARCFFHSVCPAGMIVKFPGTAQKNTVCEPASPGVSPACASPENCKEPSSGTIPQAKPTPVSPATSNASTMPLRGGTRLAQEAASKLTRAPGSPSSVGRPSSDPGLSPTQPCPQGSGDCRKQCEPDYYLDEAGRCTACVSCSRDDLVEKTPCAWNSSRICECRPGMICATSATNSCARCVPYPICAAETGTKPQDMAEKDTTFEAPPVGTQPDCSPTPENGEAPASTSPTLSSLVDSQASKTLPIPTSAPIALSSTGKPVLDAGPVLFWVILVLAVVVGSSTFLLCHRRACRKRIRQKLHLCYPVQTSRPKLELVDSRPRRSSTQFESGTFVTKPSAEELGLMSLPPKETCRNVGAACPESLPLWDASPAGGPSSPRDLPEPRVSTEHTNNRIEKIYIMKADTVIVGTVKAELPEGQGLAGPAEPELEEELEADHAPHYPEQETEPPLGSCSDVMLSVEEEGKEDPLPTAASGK

human CD30 [2] = molecular target: T2, human CD30 (human, UniProt P28908 19-595); experiment: cell-based or functional assay
T2 sequence: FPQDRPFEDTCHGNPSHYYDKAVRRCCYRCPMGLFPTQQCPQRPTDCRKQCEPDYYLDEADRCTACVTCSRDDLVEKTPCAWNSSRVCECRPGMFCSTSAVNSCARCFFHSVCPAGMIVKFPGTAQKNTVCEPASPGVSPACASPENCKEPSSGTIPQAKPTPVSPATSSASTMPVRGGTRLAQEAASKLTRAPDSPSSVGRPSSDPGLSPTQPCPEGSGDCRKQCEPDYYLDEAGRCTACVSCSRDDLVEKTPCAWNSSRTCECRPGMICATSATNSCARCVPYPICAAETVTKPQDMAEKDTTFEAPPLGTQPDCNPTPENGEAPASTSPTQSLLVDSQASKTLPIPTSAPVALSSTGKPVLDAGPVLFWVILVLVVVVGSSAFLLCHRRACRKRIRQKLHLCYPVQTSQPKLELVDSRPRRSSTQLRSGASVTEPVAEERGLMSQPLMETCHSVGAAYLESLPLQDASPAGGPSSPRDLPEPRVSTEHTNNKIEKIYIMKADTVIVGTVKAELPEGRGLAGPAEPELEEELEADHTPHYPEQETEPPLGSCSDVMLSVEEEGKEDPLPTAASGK

[3] = molecular target: T1, rhesus monkey (Macaca mulatta) CD30; experiment: flow cytometry on Expi293F cells transfected with rhesus monkey CD30
[4] = molecular target: T1, rhesus monkey (Macaca mulatta) CD30; experiment: as above
human CD30 [5] = molecular target: T2, human CD30; experiment: flow cytometry on SU-DHL-1 cells
Description: Binding of CD3×CD30 bispecific antibodies to two CD30-expressing human tumor cell lines SU-DHL-1 (ALCL; ATCC, cat. no. ACC 356) and HDLM-2 (HL; ATCC, cat. no. CRL-2965) was analyzed by flow cytometry.
(§1) Cells (3×10⁴ cells/well) were incubated in polystyrene 96-well round-bottom plates (Greiner bio-one, cat. no. 650180) with serial dilutions of antibodies (range 0.0046 to 10 μg/mL in 3-fold dilution steps) in 50 μL staining buffer at 4° C. for 30 min. After washing twice in staining buffer, cells were incubated with 50 μL secondary antibody at 4° C. for 30 min. […] Next, cells were washed twice in staining buffer, resuspended in 100 μL staining buffer supplemented with TO-PRO-3 iodide (Thermo Fisher Scientific; cat. no. T3605; 1:8000 dilution) and analyzed on a FACSCelesta flow cytometer (BD Biosciences, USA). Live cells were gated based on FSC/SSC and absence of TOPRO-3 staining. Binding curves were analyzed by non-linear regression of log-transformed data (sigmoidal dose-response with variable slope, four parameters) using GraphPad Prism V7.02 software (GraphPad Software, San Diego, Calif., USA).

[6] = molecular target: T1, rhesus monkey (Macaca mulatta) CD30; experiment: flow cytometry on Expi293F cells transfected with rhesus monkey CD30
human CD30 [7] = molecular target: T2, human CD30; experiment: flow cytometry on Expi293F cells transfected with human CD30
Description: Cells (3×10⁴ cells/well) were incubated in polystyrene 96-well round-bottom plates (Thermo Scientific, cat. no. 163320) with serial dilutions of antibodies (ranging from 0.0002 to 50 μg/mL in 4-fold dilution steps) in 50 μL staining buffer at 4° C. for 30 min. Experiments were performed in technical duplicate. After washing twice in staining buffer, cells were incubated in 50 μL secondary antibody at 4° C. for 30 min. […] Cells were washed twice in staining buffer, resuspended in 30 μL staining buffer containing 0.4% EDTA and the ToPro-3 viability marker (Invitrogen, cat. no. T3605) diluted 1:10,000. Cells were analyzed on an iQue Screener (Intellicyt Corporation, USA). Binding curves were analyzed using non-linear regression (sigmoidal dose-response with variable slope) using GraphPad Prism V9.0.0 software (GraphPad Software, San Diego, Calif., USA).

human CD30 [8] = molecular target: T2, human CD30; experiment: flow cytometry on NCEB-1 cells
Description: as §1

human CD30 [9] = molecular target: T2, human CD30; experiment: flow cytometry on DEL cells

B1: bsG1-huCD3-FEAL×CD30-HeFi-I-FEAR (bispecific antibody, human IgG1, kappa, lambda)
heavy 1: not shown
light 1: not shown
heavy 2: EVKLVESGGGLVQPGGSLRLSCATSGFTFSDYYMNWVRQPPGKALEWLGFIRNKANGYTTEFSASVMGRFTISRDDSQSILYLQMNTLRAEDSATYYCARDPPYGNPHYYAMDYWGQGTSVTVSSASTKGPSVFPLAPSSKSTSGGTAALGCLVKDYFPEPVTVSWNSGALTSGVHTFPAVLQSSGLYSLSSVVTVPSSSLGTQTYICNVNHKPSNTKVDKRVEPKSCDKTHTCPPCPAPEFEGGPSVFLFPPKPKDTLMISRTPEVTCVVVAVSHEDPEVKFNWYVDGVEVHNAKTKPREEQYNSTYRVVSVLTVLHQDWLNGKEYKCKVSNKALPAPIEKTISKAKGQPREPQVYTLPPSREEMTKNQVSLTCLVKGFYPSDIAVEWESNGQPENNYKTTPPVLDSDGSFFLYSRLTVDKSRWQQGNVFSCSVMHEALHNHYTQKSLSLSPG
light 2: not shown
notes: Bispecific IgG1 by Fab-arm exchange of the two parental antibodies; also called BsIgG1-huCD3-FEAL×CD30-HeFi-I-FEAR
- binding result [1]: no binding (tested: 10 µg/mL)
- cytotoxicity IC50 (µg/mL) average, Karpas-299 cells (human CD30 [2]): 0.052 µg/mL
- cytotoxicity maximum lysis (%) average, Karpas-299 cells (human CD30 [2]): 43%

B2: bsG1-huCD3-FEAL×CD30-T405-FEAR (bispecific antibody, human IgG1, kappa, lambda)
heavy 1: not shown
light 1: not shown
heavy 2: QVQLQQIGAELVRPGASVKLSCKASGYTFNNYWINWVKQRPGQGLEWIGNIYPSDSRSNYNQKFKDKATLTVDKPSSTAYMQLSSPTSEDSAVYYCTLGSYWGQGTLVTVSAASTKGPSVFPLAPSSKSTSGGTAALGCLVKDYFPEPVTVSWNSGALTSGVHTFPAVLQSSGLYSLSSVVTVPSSSLGTQTYICNVNHKPSNTKVDKRVEPKSCDKTHTCPPCPAPEFEGGPSVFLFPPKPKDTLMISRTPEVTCVVVAVSHEDPEVKFNWYVDGVEVHNAKTKPREEQYNSTYRVVSVLTVLHQDWLNGKEYKCKVSNKALPAPIEKTISKAKGQPREPQVYTLPPSREEMTKNQVSLTCLVKGFYPSDIAVEWESNGQPENNYKTTPPVLDSDGSFFLYSRLTVDKSRWQQGNVFSCSVMHEALHNHYTQKSLSLSPG
light 2: DVVMTQTPLTLSVTIGQPASISCKSSQSLSDSDGKTYLNWLLQRPGQSPKRLIYLVSKLDSGVPDRFTGSGSGTDFTLKISRVEAEDLGVYYCWQGAHFPRTFGGGTKLEIKRTVAAPSVFIFPPSDEQLKSGTASVVCLLNNFYPREAKVQWKVDNALQSGNSQESVTEQDSKDSTYSLSSTLTLSKADYEKHKVYACEVTHQGLSSPVTKSFNRGEC
notes: Bispecific IgG1 by Fab-arm exchange of the two parental antibodies; also called bsIgG1-huCD3-FEAL×CD30-T405-FEAR
- binding result [3]: binds
- cytotoxicity IC50 (µg/mL) average, Karpas-299 cells (human CD30 [2]): 0.078 µg/mL
- cytotoxicity maximum lysis (%) average, Karpas-299 cells (human CD30 [2]): 41.7%

B3: IgG1-CD30-hAC10-FEAR (antibody, V domains shown)
VH: QVQLVQSGAEVKKPGASVKVSCKASGYTFTDYYITWVRQAPGQGLEWMGWIYPGSGNTKYNEKFKGRVTMTRDTSISTAYMELSRLRSDDTAVYYCANYGNYWFAYWGQGTLVTVSS
VL: DIVMTQSPDSLAVSLGERATINCKASQSVDFDGDSYMNWYQQKPGQPPKLLIYAASNLESGVPDRFSGSGSGTDFTLTISSLQAEDVAVYYCQQSNEDPWTFGQGTKVEIKR
notes: Monospecific, bivalent parental antibody
- binding result [4]: binds
- EC50 (read off the curve) (human CD30 [5]): ~0.05 µg/mL

B4: IgG1-CD30-HRS-3-FEAR (antibody, V domains shown)
VH: QVQLQQSGAELARPGASVKMSCKASGYTFTTYTIHWVRQRPGHDLEWIGYINPSSGYSDYNQNFKGKTTLTADKSSNTAYMQLNSLTSEDSAVYYCARRADYGNYEYTWFAYWGQGTTVTVSS
VL: DIVMTQSPKFMSTSVGDRVTVTCKASQNVGTNVAWFQQKPGQSPKVLIYSASYRYSGVPDRFTGSGSGTDFTLTISNVQSEDLAEYFCQQYHTYPLTFGGGTKLEINR
notes: as for B3
- EC50 (read off the curve) [6]: ~0.1 µg/mL
- EC50 (read off the curve) (human CD30 [7]): ~0.06 µg/mL

B5: IgG1-CD30-MDX060-FERR (antibody)
heavy: QVQLQQWGAGLLKPSETLSLTCAVYGGSFSAYYWSWIRQPPGKGLEWIGDINHGGGTNYNPSLKSRVTISVDTSKNQFSLKLNSVTAADTAVYYCASLTAYWGQGSLVTVSSASTKGPSVFPLAPSSKSTSGGTAALGCLVKDYFPEPVTVSWNSGALTSGVHTFPAVLQSSGLYSLSSVVTVPSSSLGTQTYICNVNHKPSNTKVDKRVEPKSCDKTHTCPPCPAPEFERGPSVFLFPPKPKDTLMISRTPEVTCVVVDVSHEDPEVKFNWYVDGVEVHNAKTKPREEQYNSTYRVVSVLTVLHQDWLNGKEYKCKVSNKALPAPIEKTISKAKGQPREPQVYTLPPSREEMTKNQVSLTCLVKGFYPSDIAVEWESNGQPENNYKTTPPVLDSDGSFFLYSRLTVDKSRWQQGNVFSCSVMHEALHNHYTQKSLSLSPG
light: DIQMTQSPTSLSASVGDRVTITCRASQGISSWLTWYQQKPEKAPKSLIYAASSLQSGVPSRFSGSGSGTDFTLTISSLQPEDFATYYCQQYDSYPITFGQGTRLEIKRTVAAPSVFIFPPSDEQLKSGTASVVCLLNNFYPREAKVQWKVDNALQSGNSQESVTEQDSKDSTYSLSSTLTLSKADYEKHKVYACEVTHQGLSSPVTKSFNRGEC
notes: Monospecific, bivalent parental antibody; also called IgG1-huCD30-MDX060-FERR
- EC50 (read off the curve) (human CD30 [8]): ~0.05 µg/mL
- EC50 (read off the curve) (human CD30 [9]): ~0.09 µg/mL

B6: IgG1-CD30-HeFi-I-FEAR (antibody, V domains shown)
VH: EVKLVESGGGLVQPGGSLRLSCATSGFTFSDYYMNWVRQPPGKALEWLGFIRNKANGYTTEFSASVMGRFTISRDDSQSILYLQMNTLRAEDSATYYCARDPPYGNPHYYAMDYWGQGTSVTVSS
VL: DIVLTQSPASLAVSLGQRATISCRASKSVSASGYNYMHWYQQKAGQPPKLLIHLASNLESGVPARFSGSGSGTDFTLNIHPVEEEDASTYYCQHSGELPFTFGSGTKLEIKR
notes: as for B3
- binding result [1]: no binding (tested: 10 µg/mL)

Reference: patent US20230132049A1 (Genmab, published 2023)
